Sequences and labels used below:
B1: PKD2L1 (parent)
chain: TLARCAKDILGFAVMFFIVFFAYA
B2: TRIM43 (parent)
chain: NNSWIRKNSTMVNSEDIFLLLCLK
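Also: lentivirally expressed fusions sorted by FACS into six bins by GFP to DsRed ratio, PSI derived from sequencing read proportions per bin multiplied by bin number.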

Variants of B1 are the subject of one series. Kind of series: protein stability index of a GFP-peptide fusion (GPS, HEK-293T) (PSI 1-6); higher = more stable. The following applies: c terminus: a fixed tail appended.
As to TLARCAKDIPGFAVMFFIVFFAYA [L10P], the protein stability index amounted to 3.1.

With TLARCYKDILGFAVMFFIVFFAYA [A6Y], the protein stability index was found to be 3.06.

For TLARCEKDILGFAVMFFIVFFAYA [A6E], the protein stability index was determined as 3.58.

Take TLARCIKDILGFAVMFFIVFFAYA [A6I]: the protein stability index stood at 2.69.

In the case of TLARCAKDILGFAFMFFIVFFAYA [V14F], the protein stability index stood at 2.3.

Turning to TLARCAKDILGNAVMFFIVFFAYA [F12N], the protein stability index came out at 2.55.

Regarding TLARCAKDILGFAVMFFIVFFSYA [A22S], the protein stability index was 3.22.

Turning to TLARCAKDILGFAVMQFIVFFAYA [F16Q], the protein stability index worked out at 4.27.

For TLARCAKDILGFAVMFFIVFFAYM [A24M], the protein stability index was determined as 1.92.

As for TLARCAKDILGFAVMFFIVFFAYN [A24N], the protein stability index came to 2.33.

Turning to TLARCAKDILGFAVIFFIVFFAYA [M15I], the protein stability index was 3.37.

As for TLARCAKPILGFAVMFFIVFFAYA [D8P], the protein stability index was 2.25.

As for TLARCAKAILGFAVMFFIVFFAYA [D8A], the protein stability index was 2.77.

As to TLARCAKVILGFAVMFFIVFFAYA [D8V], the protein stability index came out at 2.33.

With TLARCAKQILGFAVMFFIVFFAYA [D8Q], the protein stability index came to 1.51.

As to HLARCAKDILGFAVMFFIVFFAYA [T1H], the protein stability index stood at 2.29.

Turning to MLARCAKDILGFAVMFFIVFFAYA [T1M], the protein stability index was determined as 4.2.

On to RLARCAKDILGFAVMFFIVFFAYA [T1R], for which the protein stability index is 1.72.

With TLARCAKDILGFAVMFFIVFIAYA [F21I], the protein stability index was 3.32.

For the variant TLARCAKDILGFAVMFFIVFKAYA [F21K], the protein stability index is 2.1.

TLARLAKDILGFAVMFFIVFFAYA [C5L]: the protein stability index stood at 2.78.

For TLARIAKDILGFAVMFFIVFFAYA [C5I], the protein stability index amounted to 3.

As to TCARCAKDILGFAVMFFIVFFAYA [L2C], the protein stability index is 3.44.

With THARCAKDILGFAVMFFIVFFAYA [L2H], the protein stability index came out at 2.35.

In the case of TLARCARDILGFAVMFFIVFFAYA [K7R], the protein stability index is 2.29.

In the case of TLARCAKDILGFIVMFFIVFFAYA [A13I], the protein stability index is 1.52.

On to TLARCAKDILGFFVMFFIVFFAYA [A13F], for which the protein stability index turned out to be 2.92.

As for TLERCAKDILGFAVMFFIVFFAYA [A3E], the protein stability index is 3.11.

Turning to TLGRCAKDILGFAVMFFIVFFAYA [A3G], the protein stability index was determined as 1.71.

Turning to TLARCAKDILGFAVMFFIVEFAYA [F20E], the protein stability index was 2.77.

In the case of TLARCAKDILGFAVMFFIVKFAYA [F20K], the protein stability index is 2.48.

On to TLARCAKDILGFAVMFFIVWFAYA [F20W], for which the protein stability index worked out at 1.56.

Take TLARCAKDILGFAVMFFIVFFAHA [Y23H]: the protein stability index was 2.27.

Turning to TLARCAKDILGFAVMFFKVFFAYA [I18K], the protein stability index is 1.71.

As for TLARCAKDILGFAVMFFWVFFAYA [I18W], the protein stability index turned out to be 3.5.

With TLARCAKDALGFAVMFFIVFFAYA [I9A], the protein stability index was determined as 2.44.

The variants in another series derive from B2. The series is described as above. Particulars: c terminus: a fixed tail appended.
For NNWWIRKNSTMVNSEDIFLLLCLK [S3W], the protein stability index was determined as 3.13.

As to NNVWIRKNSTMVNSEDIFLLLCLK [S3V], the protein stability index stood at 2.53.

As for NNEWIRKNSTMVNSEDIFLLLCLK [S3E], the protein stability index was found to be 3.25.

Turning to NNPWIRKNSTMVNSEDIFLLLCLK [S3P], the protein stability index stood at 2.4.

NNYWIRKNSTMVNSEDIFLLLCLK [S3Y]: the protein stability index amounted to 3.59.

For NNRWIRKNSTMVNSEDIFLLLCLK [S3R], the protein stability index came to 2.59.

With NNMWIRKNSTMVNSEDIFLLLCLK [S3M], the protein stability index was determined as 3.38.

Regarding NNLWIRKNSTMVNSEDIFLLLCLK [S3L], the protein stability index is 2.9.

Regarding NNQWIRKNSTMVNSEDIFLLLCLK [S3Q], the protein stability index amounted to 3.18.

NNDWIRKNSTMVNSEDIFLLLCLK [S3D]: the protein stability index came out at 2.66.

On to NNCWIRKNSTMVNSEDIFLLLCLK [S3C], for which the protein stability index was found to be 3.41.

With NNIWIRKNSTMVNSEDIFLLLCLK [S3I], the protein stability index worked out at 2.78.

As for NNFWIRKNSTMVNSEDIFLLLCLK [S3F], the protein stability index came to 1.95.

Take NNTWIRKNSTMVNSEDIFLLLCLK [S3T]: the protein stability index turned out to be 4.59.

NNAWIRKNSTMVNSEDIFLLLCLK [S3A]: the protein stability index was 3.59.

Consider NNKWIRKNSTMVNSEDIFLLLCLK [S3K], for which the protein stability index amounted to 2.5.

Regarding NNNWIRKNSTMVNSEDIFLLLCLK [S3N], the protein stability index came out at 2.48.

On to NNHWIRKNSTMVNSEDIFLLLCLK [S3H], for which the protein stability index stood at 2.64.

NNSAIRKNSTMVNSEDIFLLLCLK [W4A]: the protein stability index came to 1.55.

For NNSDIRKNSTMVNSEDIFLLLCLK [W4D], the protein stability index stood at 2.64.

With NNSGIRKNSTMVNSEDIFLLLCLK [W4G], the protein stability index worked out at 2.06.

In the case of NNSCIRKNSTMVNSEDIFLLLCLK [W4C], the protein stability index was found to be 3.11.

For the variant NNSFIRKNSTMVNSEDIFLLLCLK [W4F], the protein stability index was 2.91.

On to NNSHIRKNSTMVNSEDIFLLLCLK [W4H], for which the protein stability index was determined as 3.

For HNSWIRKNSTMVNSEDIFLLLCLK [N1H], the protein stability index is 3.28.

Regarding QNSWIRKNSTMVNSEDIFLLLCLK [N1Q], the protein stability index turned out to be 2.11.

As for VNSWIRKNSTMVNSEDIFLLLCLK [N1V], the protein stability index was 3.04.

For GNSWIRKNSTMVNSEDIFLLLCLK [N1G], the protein stability index came out at 2.73.

As for ANSWIRKNSTMVNSEDIFLLLCLK [N1A], the protein stability index was 2.72.

For ENSWIRKNSTMVNSEDIFLLLCLK [N1E], the protein stability index turned out to be 4.19.

Take RNSWIRKNSTMVNSEDIFLLLCLK [N1R]: the protein stability index is 2.71.

Take WNSWIRKNSTMVNSEDIFLLLCLK [N1W]: the protein stability index was determined as 2.36.

For INSWIRKNSTMVNSEDIFLLLCLK [N1I], the protein stability index came to 2.27.

As for FNSWIRKNSTMVNSEDIFLLLCLK [N1F], the protein stability index came to 3.27.

Take SNSWIRKNSTMVNSEDIFLLLCLK [N1S]: the protein stability index turned out to be 2.39.

For MNSWIRKNSTMVNSEDIFLLLCLK [N1M], the protein stability index amounted to 2.72.

As to KNSWIRKNSTMVNSEDIFLLLCLK [N1K], the protein stability index came out at 3.25.

Turning to TNSWIRKNSTMVNSEDIFLLLCLK [N1T], the protein stability index was determined as 2.58.

On to DNSWIRKNSTMVNSEDIFLLLCLK [N1D], for which the protein stability index amounted to 2.27.

Regarding LNSWIRKNSTMVNSEDIFLLLCLK [N1L], the protein stability index was 2.47.

Consider YNSWIRKNSTMVNSEDIFLLLCLK [N1Y], for which the protein stability index was 2.79.

Regarding NRSWIRKNSTMVNSEDIFLLLCLK [N2R], the protein stability index was determined as 2.93.

As to NISWIRKNSTMVNSEDIFLLLCLK [N2I], the protein stability index came out at 2.32.

Take NDSWIRKNSTMVNSEDIFLLLCLK [N2D]: the protein stability index was 1.88.

As for NTSWIRKNSTMVNSEDIFLLLCLK [N2T], the protein stability index was found to be 2.14.

For NGSWIRKNSTMVNSEDIFLLLCLK [N2G], the protein stability index is 3.56.

On to NWSWIRKNSTMVNSEDIFLLLCLK [N2W], for which the protein stability index was 2.65.

Consider NQSWIRKNSTMVNSEDIFLLLCLK [N2Q], for which the protein stability index came out at 2.59.

Regarding NFSWIRKNSTMVNSEDIFLLLCLK [N2F], the protein stability index was 3.5.

In the case of NMSWIRKNSTMVNSEDIFLLLCLK [N2M], the protein stability index was 3.25.

NYSWIRKNSTMVNSEDIFLLLCLK [N2Y]: the protein stability index was 3.58.

For NPSWIRKNSTMVNSEDIFLLLCLK [N2P], the protein stability index is 2.24.

NESWIRKNSTMVNSEDIFLLLCLK [N2E]: the protein stability index came out at 3.2.

As to NVSWIRKNSTMVNSEDIFLLLCLK [N2V], the protein stability index worked out at 2.46.

Consider NLSWIRKNSTMVNSEDIFLLLCLK [N2L], for which the protein stability index is 2.46.

For NHSWIRKNSTMVNSEDIFLLLCLK [N2H], the protein stability index turned out to be 2.3.

Regarding NCSWIRKNSTMVNSEDIFLLLCLK [N2C], the protein stability index turned out to be 2.89.

Regarding NSSWIRKNSTMVNSEDIFLLLCLK [N2S], the protein stability index is 2.48.

For the origin of these results see the supplement of paper PMC10567573.
